Molecular target: HCMV trimeric gH/gL recombinant protein (human cytomegalovirus, strain Merlin | T4 phage) (UniProt F5HCH8)
Experiment: native gel or EMSA

## HCMV trimeric gH/gL recombinant protein (from UniProt F5HCH8;Q6SW67)
  stoichiometry N: 3
